Test results: patent publication US20060257938A1, “Method of screening for drugs that block ligand binding to a lipid binding protein” (priority 2005, published 2006)
Changes are numbered by the printed parent chain. Values joined by “and” are separate entries in the source; they are usually repeats but may differ in a detail not shown here. Equal entries are not always repeated.

B1: 11G, 72A (protein, listed as Rattus norvegicus)
chain: AFDGTWKVDRGENYEKFMEKMGINVVKRKLGAHDNLKLTITQEGNKFTVKESSNFRNIDVVFELGVDFAYSAADGTELTGTWTMEGNKLVGKFKRVDNGKELIAVREISGNELIQTYTYEGVEAKRIFKKE
modifications: PEPTIDE (1)...(131) wild-type rat intestinal fatty acid binding protein
B2: 102G, 72A (protein, listed as Rattus norvegicus)
chain: B1 chain with G11N, L102G
modifications: PEPTIDE (1)...(131) wild-type rat intestinal fatty acid binding protein
B3: 102H, 72A (protein, listed as Rattus norvegicus)
chain: B1 chain with G11N, L102H
modifications: PEPTIDE (1)...(131) wild-type rat intestinal fatty acid binding protein
B4: 11Y1, 72A (protein, listed as Rattus norvegicus)
chain: B1 chain with G11Y
modifications: PEPTIDE (1)...(131) wild-type rat intestinal fatty acid binding protein
B5: 11Y1, L72A (protein, listed as Rattus norvegicus)
chain: B1 chain with G11Y
modifications: PEPTIDE (1)...(131) wild-type rat intestinal fatty acid binding protein
B6: 126A, 72A (protein, listed as Rattus norvegicus)
chain: B1 chain with G11N, R126A
modifications: PEPTIDE (1)...(131) wild-type rat intestinal fatty acid binding protein
B7: 126D, 72A (protein, listed as Rattus norvegicus)
chain: B1 chain with G11N, R126D
modifications: PEPTIDE (1)...(131) wild-type rat intestinal fatty acid binding protein
B8: 126E, 72A (protein, listed as Rattus norvegicus)
chain: B1 chain with G11N, R126E
modifications: PEPTIDE (1)...(131) wild-type rat intestinal fatty acid binding protein
B9: 126F, 72A (protein, listed as Rattus norvegicus)
chain: B1 chain with G11N, R126F
modifications: PEPTIDE (1)...(131) wild-type rat intestinal fatty acid binding protein
B10: 126H, 72A (protein, listed as Rattus norvegicus)
chain: B1 chain with G11N, R126H
modifications: PEPTIDE (1)...(131) wild-type rat intestinal fatty acid binding protein
B11: 126I, 72A (protein, listed as Rattus norvegicus)
chain: B1 chain with G11N, R126I
modifications: PEPTIDE (1)...(131) wild-type rat intestinal fatty acid binding protein
B12: 126L, 72A (protein, listed as Rattus norvegicus)
chain: B1 chain with G11N, R126L
modifications: PEPTIDE (1)...(131) wild-type rat intestinal fatty acid binding protein
B13: 126M, 72A (protein, listed as Rattus norvegicus)
chain: B1 chain with G11N, R126M
modifications: PEPTIDE (1)...(131) wild-type rat intestinal fatty acid binding protein
B14: 126V, 72A (protein, listed as Rattus norvegicus)
chain: B1 chain with G11N, R126V
modifications: PEPTIDE (1)...(131) wild-type rat intestinal fatty acid binding protein
B15: 14A, 72A (protein, listed as Rattus norvegicus)
chain: B1 chain with G11N, Y14A
modifications: PEPTIDE (1)...(131) wild-type rat intestinal fatty acid binding protein
B16: 14D, 72A (protein, listed as Rattus norvegicus)
chain: B1 chain with G11N, Y14D
modifications: PEPTIDE (1)...(131) wild-type rat intestinal fatty acid binding protein
B17: 14E, 72A (protein, listed as Rattus norvegicus)
chain: B1 chain with G11N, Y14E
modifications: PEPTIDE (1)...(131) wild-type rat intestinal fatty acid binding protein
B18: 102I, 72A (protein, listed as Rattus norvegicus)
chain: B1 chain with G11N, L102I
modifications: PEPTIDE (1)...(131) wild-type rat intestinal fatty acid binding protein
B19: 14F, 72A (protein, listed as Rattus norvegicus)
chain: B1 chain with G11N, Y14F
modifications: PEPTIDE (1)...(131) wild-type rat intestinal fatty acid binding protein
B20: 14G, 72A (protein, listed as Rattus norvegicus)
chain: B1 chain with G11N, Y14G
modifications: PEPTIDE (1)...(131) wild-type rat intestinal fatty acid binding protein

Assay: Probe fluorescence ratio response to linolenic acid relative to ADIFAB2
Format: binding
Details: response relative to ADIFAB2
Source text: (§1) In an alternate preferred embodiment, the protein is rI-FABP that has Ala substituted for Leu at position 72 (rI-FABP-L72A) with the resulting probe named ADIFAB2. […] Other probes useful in embodiments of the invention are shown in Tables 1-6 and are also described in U.S. application Ser. No. 11/085,792, filed Mar. 21, 2005 which is incorporated herein by reference. The indicated substitutions are with reference to the ADIFAB protein of SEQ ID NO: 2.
(§2) ADIFAB2 also has an altered spectral response, making it especially useful for measurements of FFAu in blood samples (Apple et al, Clinical Proteomics, (2004) 1:41-44, U.S. patent application Ser. No. 10/670,958). The wavelengths at the maximum intensities emitted by these fluorescently-labeled I-FABP's in the absence of FFA is about 420 to 480 nm. The emission wavelengths at the maximum intensities emitted by these fluorescently-labeled I-FABP's with FFA bound are between about 495 to 580 nm. Experiments typically involve measuring the fluorescence response within both emission maxima or at wavelengths for which the effect of interfering molecules such as hemoglobin can be eliminated as described in U.S. application Ser. No. 10/670958 and PCT/US2004/030521 and the calculation of the ratio ‘R’ of the two fluorescence intensities. The baseline value for this ratio, measured in the absence of analyte, is designated R0.
(§3) The intensity ratio (“R” value) is determined as follows. The ratio is calculated using the following formula: R=Fλ1/Fλ2 wherein, Fλ1 is the measured fluorescence intensities (intensity of sample with probe present minus intensity of sample without probe present) at wavelength 1 and Fλ2 is the measured fluorescence intensities (intensity of sample with probe present minus intensity of sample without probe present) at wavelength 2. Then, for a given probe, ΔR, the difference in R value between the measurement in the presence of the test compound (agent) and in the absence of the test compound (agent), is calculated as follows: ΔR=R+agent−R0 In some embodiments, the ΔR value may then be compared to some reference, for example, an agent with a known affinity for a given probe, by ΔR/ΔRreference. Measurements of fluorescence intensities are obtained using standard techniques.

| Molecule | DR/DR LNA |
| --- | --- |
| B1 | 0.67 |
| B2 | 0.38 |
| B3 | 0.63 |
| B4 | 0.31 |
| B5 | 0.33 |
| B6 | 1.36 |
| B7 | 0.56 |
| B8 | 0.32 |
| B9 | 0.53 |
| B10 | 0.46 |
| B11 | 0.43 |
| B12 | 0.66 |
| B13 | 0.28 |
| B14 | 0.42 |
| B15 | 0.56 |
| B16 | 0.51 |
| B17 | 0.61 |
| B18 | 1.76 and 1.763 |
| B19 | 0.88 |
| B20 | 0.46 |

Assay: Probe fluorescence ratio response to oleic acid relative to ADIFAB2
Format: binding
Details: response relative to ADIFAB2
Source text: as §1, §2, §3

| Molecule | DR/DR OA |
| --- | --- |
| B1 | 0.62 |
| B2 | 0.65 |
| B3 | 0.66 |
| B4 | 0.16 |
| B5 | 0.16 |
| B6 | 1.38 |
| B7 | 0.64 |
| B8 | 0.30 |
| B9 | 0.43 |
| B10 | 0.43 |
| B11 | 0.34 |
| B12 | 0.55 |
| B13 | 0.24 |
| B14 | 0.33 |
| B15 | 0.36 |
| B16 | 0.34 |
| B17 | 0.41 |
| B18 | 1.93 and 1.929 |
| B19 | 0.72 |
| B20 | 0.24 |

Assay: Probe fluorescence ratio response to arachidonic acid relative to ADIFAB2
Format: binding
Details: arachidonic acid; response relative to ADIFAB2
Source text: as §1, §2, §3

| Molecule | DR/DR AA |
| --- | --- |
| B1 | 0.63 |
| B2 | 0.63 |
| B3 | 0.52 |
| B4 | 0.52 |
| B5 | 0.49 |
| B6 | 1.27 |
| B7 | 0.44 |
| B8 | 0.25 |
| B9 | 0.52 |
| B10 | 0.20 |
| B11 | 0.45 |
| B12 | 0.66 |
| B13 | 0.32 |
| B14 | 0.42 |
| B15 | 0.53 |
| B16 | 0.46 |
| B17 | 0.51 |
| B18 | 1.46 and 1.461 |
| B19 | 0.83 |
| B20 | 0.43 |

Assay: Probe fluorescence ratio response to linoleic acid relative to ADIFAB2
Format: binding
Details: response relative to ADIFAB2
Source text: as §1, §2, §3

| Molecule | DR/DR LA |
| --- | --- |
| B1 | 0.70 |
| B2 | 0.78 |
| B3 | 0.65 |
| B4 | 0.33 |
| B5 | 0.32 |
| B6 | 1.32 |
| B7 | 0.59 |
| B8 | 0.34 |
| B9 | 0.51 |
| B10 | 0.46 |
| B11 | 0.43 |
| B12 | 0.64 |
| B13 | 0.31 |
| B14 | 0.45 |
| B15 | 0.56 |
| B16 | 0.53 |
| B17 | 0.56 |
| B18 | 1.90 and 1.902 |
| B19 | 0.88 |
| B20 | 0.42 |

Assay: Probe fluorescence ratio response to palmitic acid relative to ADIFAB2
Format: binding
Details: response relative to ADIFAB2
Source text: as §1, §2, §3

| Molecule | DR/DR PA |
| --- | --- |
| B1 | 0.61 |
| B2 | 0.36 |
| B3 | 0.37 |
| B4 | 0.30 |
| B5 | 0.25 |
| B6 | 1.22 |
| B7 | 0.37 |
| B8 | 0.21 |
| B9 | 0.34 |
| B10 | 0.32 |
| B11 | 0.38 |
| B12 | 0.38 |
| B13 | 0.29 |
| B14 | 0.34 |
| B15 | 0.24 |
| B16 | 0.28 |
| B17 | 0.44 |
| B18 | 1.17 and 1.169 |
| B19 | 0.60 |
| B20 | 0.19 |
